Laboratory results: patent US20240261333A1, “NOVEL TARGETS FOR ENHANCING ANTI-TUMOR IMMUNITY” (THE BROAD INSTITUTE, INC., priority 2021, published 2024)

Target: T1, B3GNT2 (Homo sapiens, UniProt Q9NY97)
T1 construct: The respective ORFs of candidate genes [CD274 (NM_014143), MCL1 (NM_021960), JUNB (NM_002229), and B3GNT2 (NM_006577)] were synthesized; expressed in transfected cells; host or cells: A375 melanoma cells (lentiviral ORF overexpression)
T1 sequence (Q9NY97 1-397): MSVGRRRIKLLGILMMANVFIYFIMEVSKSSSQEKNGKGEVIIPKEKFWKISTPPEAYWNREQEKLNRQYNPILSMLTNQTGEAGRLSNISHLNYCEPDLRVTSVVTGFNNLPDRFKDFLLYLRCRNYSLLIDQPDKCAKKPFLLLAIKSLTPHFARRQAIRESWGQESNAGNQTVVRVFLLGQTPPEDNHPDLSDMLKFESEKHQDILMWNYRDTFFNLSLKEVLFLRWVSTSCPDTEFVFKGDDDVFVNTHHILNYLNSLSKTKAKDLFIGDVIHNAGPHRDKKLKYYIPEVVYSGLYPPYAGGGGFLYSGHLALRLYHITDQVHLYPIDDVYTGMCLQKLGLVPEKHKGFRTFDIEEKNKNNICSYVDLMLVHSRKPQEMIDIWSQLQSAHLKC
Assay: Co-IP of FLAG-tagged B3GNT2 followed by mass spectrometry
Format: cell-based
Parameters: C-term IgG / C-term flag: unit not given here
Settings: Co-IP followed by mass spectrometry of B3GNT2; for C-term flag / C-term IgG: C-term tag; for C-term flag / N-term FLAG: FLAG pull-down; for C-term IgG / N-term IgG: IgG pull-down; for N-term FLAG / N-term IgG: N-term tag
Description: Cells were plated in 10-cm cell culture dishes and grown to 60-80% confluency. For each condition, two biological replicates were harvested for co-IP. Cells were washed with PBS and 4 mL of lysis buffer (20 mM HEPES, 1% Triton X-100, 150 mM NaCl, 1 mM EDTA, and 10% glycerol) containing protease inhibitor cocktail was added. Cells were scraped and lysate was incubated at 4° C. under rotary agitation for 1 h. Lysate was centrifuged at 14,000×g for 10 min at 4° C. Supernatant was transferred to a new tube and an aliquot was taken as the input. […] For Western blots, 10 μg/mL Chicken Anti-FLAG (Aves labs ET-DY100) and IgY control (R&D Systems AB-101-C) antibodies were biotinylated (Thermo Fisher Scientific 90407) and added to the respective conditions. Lysates with antibodies were incubated at 4° C. under rotary agitation overnight. For each mL of lysate, 50 μL of Pierce Protein A/G Magnetic Beads (Mass spectrometry; Thermo Fisher Scientific 88803) or Pierce Streptavidin Magnetic Beads (Western blot; Thermo Fisher Scientific 88817) was washed twice with lysis buffer. Lysates with antibodies were added to the beads and incubated at 4° C. under rotary agitation for 4 h. Beads were washed with lysis buffer 3 times and resuspended in lysis buffer for storage. […] This solution was subjected to solid phase extraction to concentrate the peptides and remove unwanted reagents followed by injection onto a Shimadzu HPLC with fraction collector. Eight fractions were collected and after concentration were injected on a Waters NanoAcquity HPLC equipped with a self-packed Aeris 3 μm C18 analytical column 0.075 mm by 20 cm, (Phenomenex). Peptides were eluted using standard reverse-phase gradients. The effluent from the column was analyzed using a Thermo Orbitrap Elite mass spectrometer (nanospray configuration) operated in a data dependent manner for 54 minutes. […] Scaffold Q+S (Proteome Software) was used to provide consensus reports for the identified proteins.

B1: ARG1 (protein)
chain: MSAKSRTIGIIGAPFSKGQPRGGVEEGPTVLRKAGLLEKLKEQECDVKDYGDLPFADIPNDSPFQIVKNPRSVGKASEQLAGKVAEVKKNGRISLVLGGDHSLAIGSISGHARVHPDLGVIWVDAHTDINTPLTTTSGNLHGQPVSFLLKELKGKIPDVPGFSWVTPCISAKDIVYIGLRDVDPGEHYILKTLGIKYFSMTEVDRLGIGKVMEETLSYLLGRKKRPIHLSFDVDGLDPSFTPATGTPVVGGLTYREGLYITEEIYKTGLLSGLDIMEVNPSLGKTPEEVTRTVNTAVAITLACFGLAREGNHKPIDYLNPPK
  C-term flag: 6
  C-term IgG: 4
  N-term FLAG: 8
  N-term IgG: 4

B2: MTCH2 (protein, UniProt Q9Y6C9 2-303, looked up)
Mitochondrial carrier homolog …: ADAASQVLLGSGLTILSQPLMYVKVLIQVGYEPLPPTIGRNIFGRQVCQLPGLFSYAQHIASIDGRRGLFTGLTPRLCSGVLGTVVHGKVLQHYQESDKGEELGPGNVQKEVSSSFDHVIKETTREMIARSAATLITHPFHVITLRSMVQFIGRESKYCGLCDSIITIYREEGILGFFAGLVPRLLGDILSLWLCNSLAYLVNTYALDSGVSTMNEMKSYSQAVTGFFASMLTYPFVLVSNLMAVNNCGLAGGCPPYSPIYTSWIDCWCMLQKEGNMSRGNSLFFRKVPFGKTYCCDLKMLI
  C-term flag: 2
  C-term IgG: 0
  N-term FLAG: 4
  N-term IgG: 0

B3: DDX20 (protein)
chain: MAAAFEASGALAAVATAMPAEHVAVQVPAPEPTPGPVRILRTAQDLSSPRTRTGDVLLAEPADFESLLLSRPVLEGLRAAGFERPSPVQLKAIPLGRCGLDLIVQAKSGTGKTCVFSTIALDSLVLENLSTQILILAPTREIAVQIHSVITAIGIKMEGLECHVFIGGTPLSQDKTRLKKCHIAVGSPGRIKQLIELDYLNPGSIRLFILDEADKLLEEGSFQEQINWIYSSLPASKQMLAVSATYPEFLANALTKYMRDPTFVRLNSSDPSLIGLKQYYKVVNSYPLAHKVFEEKTQHLQELFSRIPFNQALVFSNLHSRAQHLADILSSKGFPAECISGNMNQNQRLDAMAKLKHFHCRVLISTDLTSRGIDAEKVNLVVNLDVPLDWETYMHRIGRAGRFGTLGLTVTYCCRGEEENMMMRIAQKCNINLLPLPDPIPSGLMEECVDWDVEVKAAVHTYGIASVPNQPLKKQIQKIERTLQIQKAHGDHMASSRNNSVSGLSVKSKNNTKQKLPVKSHSECGIIEKATSPKELGCDRQSEEQMKNSVQTPVENSTNSQHQVKEALPVSLPQIPCLSSFKIHQPYTLTFAELVEDYEHYIKEGLEKPVEIIRHYTGPGDQTVNPQNGFVRNKVIEQRVPVLASSSQSGDSESDSDSYSSRTSSQSKGNKSYLEGSSDNQLKDSESTPVDDRISLEQPPNGSDTPNPEKYQESPGIQMKTRLKEGASQRAKQSRRNLPRRSSFRLQTEAQEDDWYDCHREIRLSFSDTYQDYEEYWRAYYRAWQEYYAAASHSYYWNAQRHPSWMAAYHMNTIYLQEMMHSNQ
  C-term flag: 6
  C-term IgG: 0
  N-term FLAG: 0
  N-term IgG: 0

B4: PBXIP1 (protein)
chain: MDPESERALQAPHSPSKTDGKELAGTMDGEGTLFQTESPQSGSILTEETEVKGTLEGDVCGVEPPGPGDTVVQGDLQETTVVTGLGPDTQDLEGQSPPQSLPSTPKAAWIREEGRCSSSDDDTDVDMEGLRRRRGREAGPPQPMVPLAVENQAGGEGAGGELGISLNMCLLGALVLLGLGVLLFSGGLSESETGPMEEVERQVLPDPEVLEAVGDRQDGLREQLQAPVPPDSVPSLQNMGLLLDKLAKENQDIRLLQAQLQAQKEELQSLMHQPKGLEEENAQLRGALQQGEAFQRALESELQQLRARLQGLEADCVRGPDGVCLSGGRGPQGDKAIREQGPREQEPELSFLKQKEQLEAEAQALRQELERQRRLLGSVQQDLERSLQDASRGDPAHAGLAELGHRLAQKLQGLENWGQDPGVSANASKAWHQKSHFQNSREWSGKEKWWDGQRDRKAEHWKHKKEESGRERKKNWGGQEDREPAGRWKEGRPRVEESGSKKEGKRQGPKEPPRKSGSFHSSGEKQKQPRWREGTKDSHDPLPSWAELLRPKYRAPQGCSGVDECARQEGLTFFGTELAPVRQQELASLLRTYLARLPWAGQLTKELPLSPAFFGEDGIFRHDRLRFRDFVDALEDSLEEVAVQQTGDDDEVDDFEDFIFSHFFGDKALKKRSGKKDKHSQSPRAAGPREGHSHSHHHHHRG
  C-term flag: 4
  C-term IgG: 0
  N-term FLAG: 2
  N-term IgG: 0

B5: TMEM59 (protein)
chain: EAFDSVLGDTASCHRACQLTYPLHTYPKEEELYACQRGCRLFSICQFVDDGIDLNRTKLECESACTEAYSQSDEQYACHLGCQNQLPFAELRQEQLMSLMPKMHLLFPLTLVRSFWSDMMDSAQSFITSSWTFYLQADDGKIVIFQSKPEIQYAPHLEQEPTNLRESSLSKMSYLQMRNSQAHRNFLEDGESDGFLRCLSLNSGWILTTTLVLSVMVLLWICCATVATAVEQYVPSEKLSIYGDLEFMNEQKLNRYPASSLVVVRSKTEDHEEAGPLPTKVNLAHSEI
  C-term flag: 0
  C-term IgG: 0
  N-term FLAG: 6
  N-term IgG: 0

B6: LIMA1 (protein)
chain: MESSPFNRRQWTSLSLRVTAKELSLVNKNKSSAIVEIFSKYQKAAEETNMEKKRSNTENLSQHFRKGTLTVLKKKWENPGLGAESHTDSLRNSSTEIRHRADHPPAEVTSHAASGAKADQEEQIHPRSRLRSPPEALVQGRYPHIKDGEDLKDHSTESKKMENCLGESRHEVEKSEISENTDASGKIEKYNVPLNRLKMMFEKGEPTQTKILRAQSRSASGRKISENSYSLDDLEIGPGQLSSSTFDSEKNESRRNLELPRLSETSIKDRMAKYQAAVSKQSSSTNYTNELKASGGEIKIHKMEQKENVPPGPEVCITHQEGEKISANENSLAVRSTPAEDDSPGDSQVKSEVQQPVHPKPLSPDSRASSLSESSPPKAMKKFQAPARETCVECQKTVYPMERLLANQQVFHISCFRCSYCNNKLSLGTYASLHGRIYCKPHFNQLFKSKGNYDEGFGHRPHKDLWASKNENEEILERPAQLANARETPHSPGVEDAPIAKVGVLAASMEAKASSQQEKEDKPAETKKLRIAWPPPTELGSSGSALEEGIKMSKPKWPPEDEISKPEVPEDVDLDLKKLRRSSSLKERSRPFTVAASFQSTSVKSPKTVSPPIRKGWSMSEQSEESVGGRVAERKQVENAKASKKNGNVGKTTWQNKESKGETGKRSKEGHSLEMENENLVENGADSDEDDNSFLKQQSPQEPKSLNWSSFVDNTFAEEFTTQNQKSQDVELWEGEVVKELSVEEQIKRNRYYDEDEDEE
  C-term flag: 2
  C-term IgG: 0
  N-term FLAG: 4
  N-term IgG: 3

B7: MTDH (protein, UniProt Q86UE4 1-582, looked up)
Protein LYRIC: MAARSWQDELAQQAEEGSARLREMLSVGLGFLRTELGLDLGLEPKRYPGWVILVGTGALGLLLLFLLGYGWAAACAGARKKRRSPPRKREEAAAVPAAAPDDLALLKNLRSEEQKKKNRKKLSEKPKPNGRTVEVAEGEAVRTPQSVTAKQPPEIDKKNEKSKKNKKKSKSDAKAVQNSSRHDGKEVDEGAWETKISHREKRQQRKRDKVLTDSGSLDSTIPGIENTITVTTEQLTTASFPVGSKKNKGDSHLNVQVSNFKSGKGDSTLQVSSGLNENLTVNGGGWNEKSVKLSSQISAGEEKWNSVSPASAGKRKTEPSAWSQDTGDANTNGKDWGRSWSDRSIFSGIGSTAEPVSQSTTSDYQWDVSRNQPYIDDEWSGLNGLSSADPNSDWNAPAEEWGNWVDEERASLLKSQEPIPDDQKVSDDDKEKGEGALPTGKSKKKKKKKKKQGEDNSTAQDTEELEKEIREDLPVNTSKTRPKQEKAFSLKTISTSDPAEVLVKNSQPIKTLPPATSTEPSVILSKSDSDKSSSQVPPILQETDKSKSNTKQNSVPPSQTKSETSWESPKQIKKKKKARRET
  C-term flag: 6
  C-term IgG: 0
  N-term FLAG: 0
  N-term IgG: 0

B8: NCCRP1 (protein)
chain: MEEVREGHALGGGMEADGPASLQELPPSPRSPSPPPSPPPLPSPPSLPSPAAPEAPELPEPAQPSEAHARQLLLEEWGPLSGGLELPQRLTWKLLLLRRPLYRNLLRSPNPEGINIYEPAPPTGPTQRPLETLGNFRGWYIRTEKLQQNQSWTVKQQCVDLLAEGLWEELLDDEQPAITVMDWFEDSRLDACVYELHVWLLAADRRTVIAQHHVAPRTSGRGPPGRWVQVSHVFRHYGPGVRFIHFLHKAKNRMEPGGLRRTRVTDSSVSVQLRE
  C-term flag: 4
  C-term IgG: 0
  N-term FLAG: 4
  N-term IgG: 4
